Numbering of substitutions follows the chain as printed. Where two headings read alike, the source gives them in different places.
B1: AB-1 Fab (Fab, V domains shown)
VH: EVQLVESGAEVKKPGESLKISCKGSGYTFTRYWIGWVRQMPGKGLEWMGIIYPGDSDVRYSPSFQGHVTISADKSISTAYLQWNSLKASDTAMYYCARLPQYCSKGVCYRWFDPWGQGTLVTVSS
VL: EIVLTQSPSSVSASVGDRVTITCRASQGISSWLAWYQQKPGKAPKLLIYAASSLQSGVPSRFSGSGSGTDFTLTISSLQPEDFATYYCQQGHSFPYTFGQGTNLEIK
B2: Reference Antibody Fab (Fab, V domains shown)
VH: B1 VH with V58T, K105N, Y109Q
VL: B1 VL with H92N
B3: Reference Antibody (antibody, V domains shown)
VH: B1 VH with V58T, K105N, Y109Q
VL: B1 VL with H92N
B4: AB-1 (antibody, V domains shown)
VH: B1 VH
VL: B1 VL

Tests used:
[1] = target: T1, SARS-CoV-2 spike S2 peptide 1143-1162, biotinylated (SARS-CoV-2); test: SPR, Fab over captured biotin-peptide, 25 C
[2] = target: T2, SARS-CoV-2 spike S2 peptide 1149-1167, biotinylated (SARS-CoV-2); test: SPR, Fab over captured biotin-peptide, 25 C
[3] = target: T2, SARS-CoV-2 spike S2 peptide 1149-1167, …; test: SPR, Fab over captured biotin-peptide, 25 C; remark: listed apart in the source
[4] = target: HIV-1 Env peptide, biotinylated (negative control) (HIV-1); test: DELFIA on captured biotin-peptide; set-up: unit not given beside the values
[5] = target: T2, SARS-CoV-2 spike S2 peptide 1149-1167, …; test: DELFIA on captured biotin-peptide; set-up: unit not given beside the values
[6] = target: T1, SARS-CoV-2 spike S2 peptide 1143-1162, …; test: DELFIA on captured biotin-peptide; set-up: unit not given beside the values

| Binder | Kd [1] | koff [1] | kon [1] | Kd [2] | koff [2] | kon [2] | Kd [3] | AUC [4] | AUC [5] | AUC [6] |
| --- | --- | --- | --- | --- | --- | --- | --- | --- | --- | --- |
| B1 | 12.3 nM | 0.037 s⁻¹ | 3e+06 M⁻¹ s⁻¹ | 0.9 nM | 0.00241 s⁻¹ | 2.61e+06 M⁻¹ s⁻¹ | 0.925 nM | – | – | – |
| B2 | – | – | – | 5.4 nM | 0.00498 s⁻¹ | 929000 M⁻¹ s⁻¹ | 5.36 nM | – | – | – |
| B3 | – | – | – | – | – | – | – | 16100 | 3.05e+06 | – |
| B4 | – | – | – | – | – | – | – | 9860 | 3.27e+06 | 3.52e+06 |

From patent publication US20240360203A1
